We go through two molecules from paper PMC3278721 (Molecular Cell, 2012).

In assay [1] the target is T1, Maltose Binding Protein fused to ROS1 full-length (MBP-ROS1) (Arabidopsis, UniProt Q9SJQ6 1-1393).
T1 sequence (looked up): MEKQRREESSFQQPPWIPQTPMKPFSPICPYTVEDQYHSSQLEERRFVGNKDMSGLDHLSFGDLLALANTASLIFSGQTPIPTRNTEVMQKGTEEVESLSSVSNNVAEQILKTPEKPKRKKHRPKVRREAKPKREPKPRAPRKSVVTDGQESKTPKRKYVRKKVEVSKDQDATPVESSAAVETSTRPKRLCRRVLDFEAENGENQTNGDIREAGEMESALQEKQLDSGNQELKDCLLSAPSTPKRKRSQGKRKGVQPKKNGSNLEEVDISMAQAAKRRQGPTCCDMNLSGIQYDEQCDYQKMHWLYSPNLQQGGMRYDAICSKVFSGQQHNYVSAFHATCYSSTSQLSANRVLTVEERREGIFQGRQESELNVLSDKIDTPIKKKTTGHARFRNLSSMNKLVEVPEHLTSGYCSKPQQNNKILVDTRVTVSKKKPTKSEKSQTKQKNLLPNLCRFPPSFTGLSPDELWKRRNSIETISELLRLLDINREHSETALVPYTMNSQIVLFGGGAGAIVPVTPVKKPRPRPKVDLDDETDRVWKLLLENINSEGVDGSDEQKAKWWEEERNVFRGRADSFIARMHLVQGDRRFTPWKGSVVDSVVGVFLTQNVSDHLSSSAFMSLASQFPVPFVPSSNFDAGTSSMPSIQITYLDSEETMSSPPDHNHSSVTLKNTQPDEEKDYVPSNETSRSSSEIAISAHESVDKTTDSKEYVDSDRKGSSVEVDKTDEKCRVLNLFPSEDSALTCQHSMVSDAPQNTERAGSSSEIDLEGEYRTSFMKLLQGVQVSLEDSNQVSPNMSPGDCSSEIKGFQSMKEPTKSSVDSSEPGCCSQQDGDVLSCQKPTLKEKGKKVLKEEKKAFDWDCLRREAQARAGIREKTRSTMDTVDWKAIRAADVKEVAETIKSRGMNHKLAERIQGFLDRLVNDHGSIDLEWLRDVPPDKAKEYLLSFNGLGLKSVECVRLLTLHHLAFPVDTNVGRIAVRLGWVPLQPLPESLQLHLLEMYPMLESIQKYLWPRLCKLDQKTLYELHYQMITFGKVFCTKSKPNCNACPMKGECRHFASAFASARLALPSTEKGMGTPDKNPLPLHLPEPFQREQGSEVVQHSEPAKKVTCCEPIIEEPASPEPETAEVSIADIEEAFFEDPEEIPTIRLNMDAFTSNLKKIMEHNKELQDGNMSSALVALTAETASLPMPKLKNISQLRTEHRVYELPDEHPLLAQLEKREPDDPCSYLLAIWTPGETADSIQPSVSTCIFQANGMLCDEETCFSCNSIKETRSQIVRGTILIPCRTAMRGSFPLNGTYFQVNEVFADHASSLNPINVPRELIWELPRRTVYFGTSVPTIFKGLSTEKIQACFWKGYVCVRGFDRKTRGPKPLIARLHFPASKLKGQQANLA
Put plainly: pull-down.

Assay [2] deals with T2, Purified full-length ROS1 fused to His6-tag (FL-ROS1) (Arabidopsis, UniProt Q9SJQ6 1-1393).
T2 sequence (looked up): T1 sequence (looked up)
Put plainly: pull-down.

B1: His-tagged ZDP (Arabidopsis thaliana zinc finger DNA 3'-phosphoesterase) (enzyme, UniProt Q84JE8 1-694, looked up)
chain: MITVAPFVSLRFQFPLYIINRSTLFFRERTQYLVYNTCHILRTTAKTMPVVAEYAKSNRSSCRSCSNKIAVKSLRLGLISKGRGGVDMTRWHHFDCFPTDSESIASVDDIQGLSALEKEDQDALTKLVEQCGKVPAKKPDEKKGKAKKHIMGPKGLTKAATSSKVIADNAKSSRSSCNRCSQTIVSKDLRVGLVTEDSRGFDITRWHHLGCFPIDFHPIDSVEDIGGYSSLEKGDQMELKYLAEVNKKDKTLIDDVQKMDEGDDEAIADNELTEETKKGKHSPVAKLVEQPGEPAKEDEDEESKKPASDEISEQKTKDVKNSPDSSKVISEYAKSSRSTCKKCSQTIAAKELRLGLVTRNFRGFDMKQWHHLGCFPVDSDPIVSVEDIGGFSELQSGDQDALKELVQQCGKQTLVDKMDEDNDDTEAKIKLTEETNKRKHSEVGEMVEEDESLTKAKQQMAKTHKVNMSESTSQVEVEAEITLSASDVKDKYRDANLLPKWKAFETVIFLERDDGLNDSEKIAAFDFDGCLAKTSVKIVGADAWSLMYPSIPEKLQSLHDQGYKLVIFTNESNIDRWKNKRQAAVDSKIGRLNSFIERVKVPIQVFIACGVSSSGGKGGKDDLYRKPKAGMWQLMKKHFNSGIAIDMDKSFYVGDAAGRKMDHSDADIKFAQASGLKFFTPEEYFIPSSTSPGT
Take B1: the binding result in assay [1] was “binds”.

B2: MBP-ZDP (enzyme, Arabidopsis thaliana, UniProt Q84JE8 1-694, looked up)
chain: B1 chain
For B2, in assay [2], the binding result is reported as “binds”.
